In patent publication US20250340652A1 (CHENGDU DI AO PHARMACEUTICAL GROUP, published 2025):

Experiments:
[1] = target: T1, CC1H, major antigenic region of PLA2R (human, UniProt Q13018 21-367); assay: indirect ELISA, CC1h coated at 2 ug/mL, anti-human IgG Fc HRP
T1 construct: Secreted from CHO-S cells, purified on Ni column; also called CCIh
Procedure: (§1) 30 μL of CC1h (2 μg/mL, diluted with 1*PBS) was added to the reaction wells of the ELISA plate, and the plate was sealed and incubated at 4° C. overnight. The plate was washed with PBST for 3 times, and the liquid in the wells was discarded. 5% PBSM was added to block the ELISA plate at room temperature for 2 hours. The plate was washed with PBST for 3 times by adding 30 μL of Abs (diluted with 1*PBS) to each well of the ELISA plate, and the plate was incubated at room temperature for 60 min. The plate was washed with PBST for 3 times, 30 μL of anti-human IgG Fc HRP (diluted with 1% PBSM at a ratio of 1:8000) was added to each well, and incubated at room temperature for 60 min. TMB was added and the reaction was stopped with 2M blocking solution and the OD value was detected at 450 nm. Recombinant Ipilimumab (Sanyou Biopharmaceuticals Co., Ltd.) was used as a negative control. The test results were illustrated in Table 2 as well as FIG. 4 and FIG. 5.

CC1H-Biotin = target: T2, CC1H-Biotin (human, UniProt Q13018 21-367, biotin by EZ-Link Sulfo-NHS-LC-Biotin, 1.80 mol Biotin/mol protein; sites not given); assay: BLI (Octet N1), CC1H-Biotin on SA sensor, antibody 76.6-8.5 nM
T2 construct: also called biotin-labeled CC1H
Procedure: Sartorius Octet® N1 molecular interaction instrument was used, the SA sensor (Sartorius, Octet® Streptavidin (SA) Biosensor, 18-5019) was selected.
The sensor was immersed in a PBSTB buffer (0.02% Tween-20 and 0.1% BSA were added in the PBS buffer) to be pre-wetted for 10 min or longer, and loaded onto the molecular interaction instrument.
The association constant (Ka), dissociation constant (Kd), and affinity constant (KD) were calculated and illustrated in Table 5 for details.

[2] = target: T1, CC1H, major antigenic region of PLA2R; assay: indirect ELISA, CC1h coated at 2 µg/mL, anti-human IgG Fc HRP, ΔOD450
Procedure: The human anti-human PLA2R antibody after phage screening and expression in Example 2 was measured in terms of the ability of binding to CC1h using the indirect ELISA method.
as §1

Binder	EC50 [1] [ng/mL]	Kd (CC1H-Biotin) [nM]	koff (CC1H-Biotin) [s⁻¹]	kon (CC1H-Biotin) [M⁻¹ s⁻¹]	binding result [2]
A61 (antibody, human IgG4, kappa, also called P59375) heavy: not shown light: DIVMTQSPLSLPVTLGQPASISCRSSQSLVKSDGNTYLSWFQQRPGQSPRRLIYKVSNRDSGVPDRFSGSGSGTDFTLKISRVEAEDVGVYYCMQGTHWPPTFGPGTKVDIKRTVAAPSVFIFPPSDEQLKSGTASVVCLLNNFYPREAKVQWKVDNALQSGNSQESVTEQDSKDSTYSLSSTLTLSKADYEKHKVYACEVTHQGLSSPVTKSFNRGEC	4.6	0.0178	1.89e-05	1.06e+06	–
B145 (antibody, human IgG4, kappa, V domains shown, also called P59396) VH: QLQLQESGPGLVKPSQTLSLTCTVSGGSISSGGYYWSWIRQHPGKGLEWIGYIYYSGSTYYNPSLKSRVTISVDTSKNQFSLKLSSVTAADTAVYYCARGKRDGYNYYFDYWGQGTLVTVSS VL: DIVMTQSPSSLSASVGDRVTITCQASQDISNYLNWYQQKPGKAPKLLIYDASSLESGVPSKFSGSRSGTDFTLTISSLQPEDSATYYCQQYRSYPITFGGGTKVEIKR	–	–	–	–	no binding
B90 (antibody, human IgG4, kappa, also called P59391) heavy: not shown light: DIQMTQSPSILSASVGDRVTLTCRASQSISSWLAWYQQTPGKAPRVLIYEASTLEVGVPSRFSGSGSGTDFTLTISSLQPEDFGTYFCQQYHTDSRTFGQGTILEIKRTVAAPSVFIFPPSDEQLKSGTASVVCLLNNFYPREAKVQWKVDNALQSGNSQESVTEQDSKDSTYSLSSTLTLSKADYEKHKVYACEVTHQGLSSPVTKSFNRGEC	2.96	0.841	0.000512	608000	–
B90 (IgG4SP) (antibody, IgG4SP (S228P in the hinge, already in the heavy chain entry); also called B90SP; P62303) heavy: not shown light: DIQMTQSPSILSASVGDRVTLTCRASQSISSWLAWYQQTPGKAPRVLIYEASTLEVGVPSRFSGSGSGTDFTLTISSLQPEDFGTYFCQQYHTDSRTFGQGTILEIKRTVAAPSVFIFPPSDEQLKSGTASVVCLLNNFYPREAKVQWKVDNALQSGNSQESVTEQDSKDSTYSLSSTLTLSKADYEKHKVYACEVTHQGLSSPVTKSFNRGEC	19.5	6.59	0.000639	97000	–
A156 (antibody, human IgG4, kappa, also called P59378) heavy: not shown light: AIQLTQSPSSLSASVGDRVTITCRASQGISSYLAWYQQKPGKAPKLLIFAASLLQRGVPSRFSGSGFGTDFTLTISGLQPEDFATYFCQQFNTYPITFGGGTKVEIKRTVAAPSVFIFPPSDEQLKSGTASVVCLLNNFYPREAKVQWKVDNALQSGNSQESVTEQDSKDSTYSLSSTLTLSKADYEKHKVYACEVTHQGLSSPVTKSFNRGEC	6.9	0.158	0.000102	644000	–
A156 (IgG4SP) (antibody, IgG4SP (S228P in the hinge, already in the heavy chain entry); also called A156SP; P62300) heavy: not shown light: AIQLTQSPSSLSASVGDRVTITCRASQGISSYLAWYQQKPGKAPKLLIFAASLLQRGVPSRFSGSGFGTDFTLTISGLQPEDFATYFCQQFNTYPITFGGGTKVEIKRTVAAPSVFIFPPSDEQLKSGTASVVCLLNNFYPREAKVQWKVDNALQSGNSQESVTEQDSKDSTYSLSSTLTLSKADYEKHKVYACEVTHQGLSSPVTKSFNRGEC	14.7	0.456	0.000169	371000	–
B156 (antibody, human IgG4, kappa, also called P59397) heavy: not shown light: DIQLTQSPSSLSASIGDRVTITCRASQGISSFLAWYQQKPGKAPQLLIYAASTLQSGVPSRFSGSGSGTEFTLTISSLQPEDFATYYCQQFKIYPLTFGGGTKVEVKRTVAAPSVFIFPPSDEQLKSGTASVVCLLNNFYPREAKVQWKVDNALQSGNSQESVTEQDSKDSTYSLSSTLTLSKADYEKHKVYACEVTHQGLSSPVTKSFNRGEC	10.5	0.242	0.000125	516000	–

The remaining lines, values ahead:

EC50 [1] [ng/mL]	Kd (CC1H-Biotin) [nM]	koff (CC1H-Biotin) [s⁻¹]	kon (CC1H-Biotin) [M⁻¹ s⁻¹]	binding result [2]	Binder
10.3	0.126	8.17e-05	648000	–	A61 (IgG4SP) (antibody, IgG4SP (S228P in the hinge, already in the heavy chain entry); also called A61SP; P62298) heavy: not shown light: DIVMTQSPLSLPVTLGQPASISCRSSQSLVKSDGNTYLSWFQQRPGQSPRRLIYKVSNRDSGVPDRFSGSGSGTDFTLKISRVEAEDVGVYYCMQGTHWPPTFGPGTKVDIKRTVAAPSVFIFPPSDEQLKSGTASVVCLLNNFYPREAKVQWKVDNALQSGNSQESVTEQDSKDSTYSLSSTLTLSKADYEKHKVYACEVTHQGLSSPVTKSFNRGEC
–	–	–	–	no binding	B44 (antibody, human IgG4, kappa, V domains shown, also called P59386) VH: QVQLVQSGAEVKKPGASVKVSCKASGYTFTSYYMHWVRQAPGQGLEWMGIINPSGGSTSYAQKFQGRVTMTRDTSTSTVYMELSSLRSEDTAVYYCARGVSRRGAFDIWGQGTMVTVSS VL: DVVMTQSPLSLPVTPGEPASISCRSSQSLLHRSGYNYLDWYVQKPGQSPQLLIYLGSIRAVGVPDRFSGSASGTDFTLRISRVEAEDVGIYYCMQALQTPPAFGGGTKVEIKR
8.12	< 0.001	< 1e-07	654000	–	B156 (IgG4SP) (antibody, IgG4SP (S228P in the hinge, already in the heavy chain entry); also called B156SP; P62304) heavy: not shown light: DIQLTQSPSSLSASIGDRVTITCRASQGISSFLAWYQQKPGKAPQLLIYAASTLQSGVPSRFSGSGSGTEFTLTISSLQPEDFATYYCQQFKIYPLTFGGGTKVEVKRTVAAPSVFIFPPSDEQLKSGTASVVCLLNNFYPREAKVQWKVDNALQSGNSQESVTEQDSKDSTYSLSSTLTLSKADYEKHKVYACEVTHQGLSSPVTKSFNRGEC
–	–	–	–	no binding	A22 (antibody, human IgG4, kappa, V domains shown, also called P59370) VH: EVQLVESGAEVKKPGSSVKVSCKASGGTFSSYAISWVRQAPGQGLEWMGGIIPIFGTANYAQKFQGRVTITADESTSTAYMELSSLRSEDTAVYYCAFTSGSYYYFDYWGQGTLVTVSS VL: not shown
